Usually Km stands for the concentration of substrate that gives half-maximal velocity.

This note sets out measurements from PMC10418727, “Structural and Biochemical Insights into Bis(2-hydroxyethyl) Terephthalate Degrading Carboxylesterase Isolated from Psychrotrophic Bacterium Exiguobacterium antarcticum” (International Journal of Molecular Sciences, 2023).

Substrate in this data set: CC(=O)Oc1ccc([N+](=O)[O-])cc1
Nature of the data set: purified protein. It is filed as biochemical, Exiguobacterium antarcticum. The conditions noted are these: optimal conditions (optimal pH 7.0), free enzyme.

B1: EaEst2 (Exiguobacterium antarcticum) (protein)
chain: MKITLPKPFFFEGGNRAVLLLHGFTGSSADVRMLGRYLQKHGYTSLAPQYKGHAAPPEELTKTGPADWWQDVLDGYEELKAKGYDEIAVCGLSLGGVMSLRLSMHRPVKAVIPMCAPAYIKSEDVMYAGVTEYAREFKKREGKSVDEIEQEMAVFEPMPTLKDLQALLKETRDSLEDVYAPTLVVQARNDHMINTDSANIIHDGVSALQKELIWYENSGHVITLDKEKETLHQDIHEFLDGLNWSH
notes: full-length gene in pET-28a (NheI/XhoI), N-terminal 6xHis tag, E. coli BL21(DE3); monomer; catalytic triad Ser93, Asp190, His220; motif GLSLG 91-95
Take B1: the Km is 590 µM.
